B1: BD-508 Fab (Fab, V domains shown)
VH: EVQLVESGGGLVQPGGSLRLSCAASGFIVSSNYMTWVRQAPGKGLEWVSVIYSGGSTFYADSVKGRFTISRHNSKNTLFLQMNSLRAEDTAVYYCARDAQNYGMDVWGQGTTVTVSS
VL: DIQMTQSPSSLSASVGDRVTITCRASQSISSYLNWYQQKPGKAPKLLIFAASSLQTGAPSRFSGSGSGTDFTLTISSLQPEDFATYYCQQSYSTPPYTFGQGTKLEIK
B2: BD-515 Fab (Fab, V domains shown)
VH: EVQLVESGGGLVQPGGSLRLSCAASEFIVSRNYMSWVRQAPGKGLEWVSVIYSGGSTFYADSVKGRFTISRDNSKNTLYLQMNSLRAEDTGVYYCARDRGLVSDYWGQGTLVTVSS
VL: DIQMTQSPSSLSASVGDRVTITCQASQDINKYLNWYQQKPGKAPKLLIFDASHLETGVPSRFSASGSGTDFTFTISSLQPEDIATYYCHQYDNLPRTFGQGTRLEIK
B3: BD-623 Fab (Fab, V domains shown)
VH: EVQLVESGGGLVQPGGSLRLSCAASGVTVSSNYMSWVRQAPGKGLEWVSAVYSGGSTYYADSVKGRFTISRHNSKNTLYLQMKSLRPEDTAIYYCARLINHYYDSSGDGGAFDIWGQGTMVTVSS
VL: LTQPASVSGSPGQSITISCTGTSSDVGSYNLVSWYQQRPGKAPKLILYEVTKRPSGVSNRFSGSKSGNTASLAISGLQAEDEADYYCCSYAGSSTWVFGGGTKLTVL

Target: SARS-CoV-2 S protein receptor-binding domain (RBD), residues 319–541 (SARS-CoV-2, UniProt P0DTC2)
Assay: crystal structure
Details: both partners purified

Binder | binding result
B1 | binds
B2 | binds
B3 | binds
